Key:
[1] = system: Human HAN larynx cell line BICR18; experiment: In vivo tumour growth, HAN CDX model (larynx cell line BICR18); conditions: BICR18 s.c. in SCID mice; HzR022 (D-A10) 10 mg/kg i.p. BIW × 3; cisplatin 2.5 mg/kg i.p. QW × 3
Description: Human HAN larynx cell line BICR18 was subcutaneously injected in SCID mice, with a concentration of 1.10^6 cells per injection (200 μL). Mice were randomized when the tumours reached a mean volume of about 100 mm^3 for the 9 groups (total 45 mice). […] The endpoint was defined by animal ethics as a tumour diameter of >18 mm, significant weight loss or alteration of animal well-being. In order to assess the effectiveness of the compounds on tumourigenesis, tumour volume was measured two times a week. The size of the primary tumours were measured using calipers and the tumour volume (TV) was extrapolated to a sphere using the formula TV= 4/3π×r^3, by calculating the mean radius from the two measurements. The median and standard deviation were also calculated for each group. Median is preferred to mean in order to exclude the extreme values. MAb treatment was administered by intraperitoneal injection twice a week during three weeks at 10 or 1 mg/kg doses. The cisplatin (Myland) treatment was administered by intraperitoneal injection once per week during three weeks at 1, 2.5 or 5 mg/kg doses. The product was prepared in accordance with the sponsor's guidelines, i.e. diluted in PBS. Mice were sacrificed when the tumours reached a maximum volume of 1600 mm^3. […] The t-test (two-tailed test) was performed on the tumour volume values (mm^3) measured on the day of sacrifice.

[2] = biological target: T1, CK8 (Homo sapiens, UniProt P05787); experiment: Antibody internalisation assay by flow cytometry; type: cell-based; design: methods to investigate on CK8 cellular expression at the cell surface analysed by flow cytometry; endogenous in cells; conditions: 4° C. versus 37° C., 24 hours; 0.78 or 0.39 μg/mL; HCT116, U87MG, BICR56, BxPC3, DU145 cell lines (FIG. 4-6)
T1 sequence (P05787 1-483): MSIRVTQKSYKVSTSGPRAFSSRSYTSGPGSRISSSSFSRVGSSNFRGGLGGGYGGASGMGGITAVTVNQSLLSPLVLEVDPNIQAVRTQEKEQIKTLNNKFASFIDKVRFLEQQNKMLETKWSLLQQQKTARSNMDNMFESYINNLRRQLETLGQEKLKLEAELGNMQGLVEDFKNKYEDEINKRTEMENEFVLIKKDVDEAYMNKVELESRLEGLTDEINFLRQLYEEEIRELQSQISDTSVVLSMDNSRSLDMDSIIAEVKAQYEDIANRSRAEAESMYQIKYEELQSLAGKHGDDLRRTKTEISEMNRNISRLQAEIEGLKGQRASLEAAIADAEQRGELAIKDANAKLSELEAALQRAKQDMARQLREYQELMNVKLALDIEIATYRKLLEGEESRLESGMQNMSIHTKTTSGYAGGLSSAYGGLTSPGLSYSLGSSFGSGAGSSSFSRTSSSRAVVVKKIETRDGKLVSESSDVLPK
Description: This example describes methods to investigate on HzR022 (D-A10) internalisation following CK8 detection at the cell surface analysed by flow cytometry.
Flow cytometry experiments for MAb internalisation. Briefly, 2.10^5 cells per 96 wells are incubated at 4° C. versus 37° C. during 24 hours with a dilution of unconjugated murine anti CK8 MAb at 50 μg/mL then diluted at ½. The MAb anti CK8 tested were D-A10 (IgG2b), D-F5 (IgG2a) or D-D6 (IgG1), from iDD biotech MAb panel. The isotype matched MAbs used were B-Z1 (IgG1), B-Z2 (IgG2a) or B-E4 (IgG2b) (Diaclone, Besancon, France). Unbound antibodies were washed away with PBS (Life technologies, St Aubin, France) supplemented by 1% Bovine Serum Albumin (Sigma, St Quentin Fallavier, France). Subsequently, cells are centrifuged (5 min at 400 g) and bound antibody is detected with Fluorescein Isothiocyanate (FITC) conjugated goat (Fab′)2 polyclonal anti mouse Ig (MP Biomedical, Illkirch, France) at 4° C. for 30 min. Detection reagent is washed away and cells are centrifuged (5 min at 400 g) and suspended in 300 μL PBS. Bound detection antibody is quantified on a FACSCAN (BD Biosciences, Rungis, France), (FL1 channel, 3 000 events per acquisition). During the experiment, the respective isotype controls are included to exclude any unspecific binding events
Results of experiments are shown in FIG. 4 for D-A10 MAb (at 0.78 or 0.39 μg/mL), in FIG. 5 for D-D6 (at 0.78 or 0.39 μg/mL), in FIG. 6 for D-F5 (at 0.78 or 0.39 μg/mL). One example was shown for CRC from HCT116 cell line, GBM from U87MG cell line, HAN from BIRC56 cell line, PC from BxPC3 or PRC from DU145.

## N.N.[Cl][Pt][Cl] [cisplatin, reference compound]
[1]
  tumour growth control (tumour volume, FIG. 3): rapid cisplatin escape

B1: D-F5: murine anti-CK8 monoclonal antibody (IgG2a); VL SEQ ID NO: 40, VH SEQ ID NO: 42 (antibody, V domains shown)
VH: QVQLKESGPGLVAPSQSLSITCTVSGFSLTSYGVHWVRQPPGKGLEWLGVIWAGGSTNYNSALMSRLRISKDNSKSQVFLKMNSLQTDDTAMYYCARIYGNYGRFAYWGQGTSVTVSS
VL: DVVMTQTPLSLPVSLGDQASISCRSSQSIVHSNGNTYLEWYLQKPGQSPKLLIYKVSNRLSGVPDRFSGSGSGTDFTLKISRVEAEDLGVYYCFQGSLVPLTFGGGTKLEIK
modifications: VH-mR022 (D-F5); VL-mR022 (D-F5)
[2]
  internalization potential: lower internalization potential

B2: D-A10: murine anti-CK8 monoclonal antibody (IgG2b); VL SEQ ID NO: 2, VH SEQ ID NO: 4 (antibody, V domains shown)
VH: EVQLLETGGGLVQPGGSRGLSCEGSGFTFSGFWMSWVRQTPGKTLEWIGDINSDGSAIKYAPSIKDRFTIFRDNDKSTLYLQMSNVRSEDTATYFCIAHYSGGGFAYWGQGTSVTVSS
VL: NIVMTQAAPSVPVTPGESVSISCRSSKSLLYSNGNTYLYWFLQRPGQSPQRLIYYMSNLASGVPDRFSGRGSGTDFTLRISRVEAEDVGVYYCMQSLEYPFTFGGGTKLEIK
modifications: VH mD-A10; VLmD-A10
[2]
  internalization potential: highest internalization potential

B3: D-D6: murine anti-CK8 monoclonal antibody (IgG1); VL SEQ ID NO: 36, VH SEQ ID NO: 38 (antibody, V domains shown)
VH: DVQLQESGPGLVKPSQSLSLTCTVTGYSITSDYAWNWIRQFPGNKLEWMGYISYSGRTSYNPSLKSRISITRDTSKNHFFLQLNSVTTEDTATYYCAPLTTGVGYAMDYWGQGTSVTVSS
VL: DVVMTQTPLSLPVSLGDQASISCRSSQSLVHSNGNTYLHWYLQKPGQSPKVLIYKVSNRFSGVPDRFSGSGSGTDFTLKISRVEAEDLGVYFCSQSTHVPFTFGGGTKLEIK
modifications: VH-mR022 (D-D6); VL-mR022 (D-D6)
[2]
  internalization potential: highest internalization potential
